Experimental findings from the RNAGym collection of RNA variant scans (doi:10.7554/elife.80360) are described below.

B1: Hairpin Ribozyme (parent)
chain: GUCCUCUUUCACGUGCGCGUGAAAGAGAGAAGUGAACCAGAGAAACACACGUUGUGGUAUAUUACCUGGUA

The variants in the data set derive from B1. Description: self-cleavage, relative activity (ratio to wild type); higher = more cleavage; co-transcriptional.
Consider C46A A59C, for which the self-cleavage was 0.3. The same measure for G15A C37A: 0.388. For A44U C66A, the self-cleavage worked out at 0.151. Regarding U14G G57U, the self-cleavage was found to be 0.234.

Turning to U55A G69C, the self-cleavage stood at 0.217. Regarding C12U A36U, the self-cleavage was 0.584. The same measure for U2A A61G: 0.106; for G1C G15U: 0.24; for G15A A31G: 0.586. As to G15A A31U, the self-cleavage was 0.133.

Take U55C G69C: the self-cleavage stood at 0.183. With A28U G68A, the self-cleavage was determined as 0.153.

As for G1C A64C, the self-cleavage came to 0.186. Consider G21U U62A, for which the self-cleavage worked out at 0.151. Under G32C A61G stands 0.136; under U5G C50U, 0.147. Under C12G C46G stands 0.17; under G27A A35G, 0.449; under G15A A43U, 0.178.

With C12G A30U, the self-cleavage was 0.147. A11G U62A: the self-cleavage stood at 0.154. For the variant U33G U62G, the self-cleavage came out at 0.0966. As to G29A U55G, the self-cleavage is 0.143. Turning to A45C U67G, the self-cleavage was 0.0812.

On to A36U A39G, for which the self-cleavage worked out at 0.344. The same measure for A35U A71U: 0.978; for A24U G34A: 1.02; for G25C G56C: 0.148. As for C46U G56A, the self-cleavage was 0.138. As for G15C A45C, the self-cleavage turned out to be 0.18. Under G21C A64C stands 0.154; under C50A A64U, 0.13. U20A A47C: the self-cleavage is 0.293. Consider U9A C66G, for which the self-cleavage was found to be 0.0453. On to G42A A61U, for which the self-cleavage was determined as 0.125. Under G17U A26G stands 0.812. The same measure for G21C A45G: 0.192; for A35G A64C: 0.174. The same measure for G40U A44C: 0.105; for A28G G29U: 0.0365. Consider A26U G29A, for which the self-cleavage stood at 0.198. Take U8G G57U: the self-cleavage was found to be 0.19. Consider C37G C50U, for which the self-cleavage was found to be 0.214. The same measure for G21C C66U: 0.576; for G25C C48U: 0.187; for C38A A43C: 0.0755. With G32U U53A, the self-cleavage worked out at 0.126. Under G21U A24C stands 0.481. As to A26U G56A, the self-cleavage stood at 0.129.

U5G U70C: the self-cleavage is 0.226. With A11U U14G, the self-cleavage came out at 0.536. Under G1C A39U stands 0.187. For C46U U60C, the self-cleavage came out at 0.247. On to A30C C50U, for which the self-cleavage turned out to be 0.118. The same measure for C3A A11C: 0.618; for G25U A41U: 1.08; for G21A G42U: 0.249. Take A11U A61U: the self-cleavage came out at 0.247. The same measure for G32C G54A: 0.0613. For U5G A61C, the self-cleavage worked out at 0.112. As for C6U U9G, the self-cleavage was determined as 0.438.

For the variant A47C U53C, the self-cleavage is 0.192. Consider G17U G54C, for which the self-cleavage was 0.413. As to C12A U70G, the self-cleavage came out at 0.673. Under G25C A39G stands 0.168. The same measure for U5C: 0.648; for U52C U67A: 0.178.

For the variant U8A U70C, the self-cleavage is 0.816. A36U A49G: the self-cleavage came out at 0.281. A24G G34A: the self-cleavage came out at 0.862. As for G21U A39G, the self-cleavage was found to be 0.293. Take C6U U7A: the self-cleavage was found to be 0.515. The same measure for U5C C10G: 0.373; for G1U C4U: 0.206.

Consider A30U G40C, for which the self-cleavage came out at 0.13.

As for G13A G19C, the self-cleavage is 0.804.

With A28U A41U, the self-cleavage came out at 1.31. The same measure for C16U G51U: 1.03; for A30C U70G: 0.0924; for C38G C66G: 0.0755.

On to U14A A22G, for which the self-cleavage is 0.762. Under U33A A49U stands 0.194; under A41C, 1.21.

On to G40A U62C, for which the self-cleavage was 0.141.

With G29C A49G, the self-cleavage was determined as 0.178. Under G17C U53C stands 0.826. With G13C A47C, the self-cleavage turned out to be 0.205.

C10G U20G: the self-cleavage was 0.561. Under A43G C65G stands 0.117; under U20C G68C, 0.219; under U20G A30U, 0.137. In the case of C18G A44U, the self-cleavage worked out at 0.135. Regarding U9G G34A, the self-cleavage came to 0.8. Under G34C C46A stands 0.238. The same measure for G15A U33A: 0.0921; for A22C A24G: 0.717. For the variant A31U G40A, the self-cleavage is 0.117. Under G25C G29U stands 0.188; under G32U G34U, 0.126. Consider U33G U58C, for which the self-cleavage was found to be 0.119. As for G29A U33A, the self-cleavage is 0.203. The same measure for G51U A64C: 0.188; for G15C U62C: 0.0966; for A23G G56A: 0.186.

For C16G A22U, the self-cleavage came out at 0.691. Turning to C18A G51A, the self-cleavage stood at 1.01.

For the variant G17C U33C, the self-cleavage stood at 0.237. Under C10G C12A stands 0.491; under G42U U70A, 0.233. In the case of U55G, the self-cleavage amounted to 0.297.

For A39U G68U, the self-cleavage was determined as 0.225. Regarding G40C A43U, the self-cleavage was determined as 0.128.

Regarding G29U U63G, the self-cleavage was determined as 0.103.

Take A47U C50U: the self-cleavage turned out to be 0.171.

Regarding A64G G69U, the self-cleavage was 0.116. Regarding U2A G27C, the self-cleavage amounted to 0.108. On to A11U C12G, for which the self-cleavage was found to be 0.74. Regarding G17U A24G, the self-cleavage came out at 0.766. Under A31C U58G stands 0.131; under A26G C37G, 0.237. Under A47G G57A stands 0.151; under C12A C48G, 0.137; under G19C U62A, 0.228.

For A36U C65A, the self-cleavage amounted to 0.502. The same measure for G57A A59G: 0.171.

On to A30U C50G, for which the self-cleavage is 0.157. The same measure for A30U A49C: 0.111; for C10U U53G: 0.725; for U7G G27U: 0.226. In the case of G25A A43U, the self-cleavage was 0.186.

Turning to A26U G32A, the self-cleavage is 0.154.

On to A31G U33A, for which the self-cleavage turned out to be 0.165. Turning to C4U G40C, the self-cleavage is 0.13. U2C C18G: the self-cleavage turned out to be 0.154. The same measure for G17A U63G: 0.29; for G17A A24U: 1.03; for G19A A61U: 0.147.

For C18G U60C, the self-cleavage amounted to 1.02.

Take A11U A39G: the self-cleavage is 0.342. Under C6A C65G stands 0.158. Under A36G C66G stands 0.288; under U9A U63A, 0.212. Consider A31U A36C, for which the self-cleavage was 0.197. As for C48G A64C, the self-cleavage was found to be 0.242.

In the case of G19C G25A, the self-cleavage was 0.512. Under G1A G19A stands 0.203. Take C37U A41C: the self-cleavage was determined as 0.567.

For the variant U33A C38U, the self-cleavage was 0.0932. A36G G57A: the self-cleavage was determined as 0.148. Take G19A G56U: the self-cleavage was determined as 0.123. As for G15C G56U, the self-cleavage was 0.113.

Take G19U U53G: the self-cleavage turned out to be 0.772.

In the case of C3G C50A, the self-cleavage came to 0.0499. The same measure for C16G A61G: 0.151. The same measure for A36C U63C: 0.259; for G1C G29U: 0.129; for C6U A64G: 0.514. Under U33A U58G stands 0.135. Consider G54A A61C, for which the self-cleavage turned out to be 0.192.

In the case of G17U U67G, the self-cleavage was found to be 0.278. The same measure for U2C U62C: 0.203. On to C3G C66U, for which the self-cleavage is 0.251.

Take A24U U70A: the self-cleavage was found to be 0.877. Under C4U U70A stands 0.299. For A61C U62C, the self-cleavage was 0.166. Under U9A A64U stands 0.131. Take C4U A43G: the self-cleavage was found to be 0.141.
